From the supplement of paper PMC10126150
± gives the standard deviation of the averaged measurements.

tested on: ATP; test: switch fluorescence ratio, 500 uM ATP over buffer (Cy3 cluster intensity, sum of 5 cycles each) (fold (ratio)); higher = stronger signal-on switching upon ATP binding; sequences stand for … in TCGTCGGCAGCGTCAGATGTGTATAAGAGACAGTTTTTTTTTTTTTTTTTTTTTTTTT…TC; details: aptamer strand: ATP DNA aptamer (quencher-CACCTGGGGGAGTATTGCGGAGGAAGG + anchor), 100 nM annealed; ATP concentration: 500 uM
In short: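 Values give the fluorescence ratio for each switch-domain sequence, averaged from per-cluster ratios of summed target-cycle to summed buffer-cycle Cy3 intensity. The Cy3-labelled switching-strand clusters sat on a modified Illumina MiSeq flow-cell, were annealed to 100 nM quencher-labelled ATP aptamer, and were imaged in selection buffer, then after 15 min with 500 uM ATP at 22 °C. Five cycles ran with NaOH stripping and re-annealing between them, and clusters outside 100-1000 RFU were excluded.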
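Further: ATP exposure 15 min at 22 °C before imaging.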

ATGGGCGTAT and AGTGTTGATG are within error of each other in switch fluorescence ratio: 1.04 ± 0.017 for the first, 0.975 ± 0.051 for the second.

TTTGGTTGAC and TTTTTAGGAT are within error of each other in switch fluorescence ratio: 1.02 ± 0.053 for the first, 1.11 ± 0.17 for the second.

TACCGGGGC and GCAGAGTGTT are within error of each other in switch fluorescence ratio: 1.06 ± 0.033 for the first, 1.02 ± 0.027 for the second.

ATATCTAGTT and GTGTGGGCAG are within error of each other in switch fluorescence ratio: 0.989 ± 0.084 for the first, 0.973 ± 0.0026 for the second.

Going from AATGGCGGTA to AGAGCACTTG, the switch fluorescence ratio rises from 0.9928 ± 0.0082 to 1.025 ± 0.0032.

GGGGGGCATT and TAGGGTGCTG are within error of each other in switch fluorescence ratio: 0.99 ± 0.033 for the first, 1.09 ± 0.16 for the second.

ATAATTTTAT and TTTCAGGTTA are within error of each other in switch fluorescence ratio: 1.08 ± 0.13 for the first, 1.06 ± 0.012 for the second.

ATGGTAGCGC and GCAGGCCGAG are within error of each other in switch fluorescence ratio: 1 ± 0.039 for the first, 1.05 ± 0.037 for the second.

First: GGTTGATAAT
Second: GAGGGCCTTA
The switch fluorescence ratio of the first is higher: 1.002 ± 0.0043 for the first, 0.9885 ± 0.0025 for the second.

AGCAGGCGAA and TAGAGTAGTG are within error of each other in switch fluorescence ratio: 1.009 ± 0.0035 for the first, 0.999 ± 0.05 for the second.

First: TTGTTGTTTG
Second: TCGGGCTCGC
The switch fluorescence ratio of the first is higher: 1.03 ± 0.025 for the first, 0.9639 ± 0.0068 for the second.

First: GATACGGGGC
Second: AATACCTGAA
The switch fluorescence ratio of the first is lower: 1.02 ± 0.014 for the first, 1.17 ± 0.017 for the second.

Going from AAACTCTCCA to GGGCTAGTCA, the switch fluorescence ratio falls from 1.04 ± 0.02 to 0.965 ± 0.019.

First: TCTGTTTTAT
Second: TTTCGGACGC
The switch fluorescence ratio of the first is lower: 0.976 ± 0.017 for the first, 1.35 ± 0.33 for the second.

Compared with GCCTGAAAAA, TTAGTGTACT is higher in switch fluorescence ratio: 0.986 ± 0.033 for the first, 1.07 ± 0.038 for the second.

Compared with GTTGAATGAC, ATTTGTATCC is lower in switch fluorescence ratio: 1.04 ± 0.0083 for the first, 0.994 ± 0.021 for the second.

First: TTCGGTTAGC
Second: AGGGTATTAT
The switch fluorescence ratio of the first is higher: 1.05 ± 0.041 for the first, 0.987 ± 0.019 for the second.

Compared with GTCCATAGGT, TGACGGCCTG is higher in switch fluorescence ratio: 1.02 ± 0.013 for the first, 1.06 ± 0.022 for the second.

TTGGGCTTTC and TTTTGATAGT are within error of each other in switch fluorescence ratio: 1.04 ± 0.03 for the first, 0.991 ± 0.026 for the second.

Going from TTGGTTATAC to CTAGGATTGA, the switch fluorescence ratio falls from 1.12 ± 0.046 to 0.992 ± 0.041.

CGGACGAAAG and ATTACTGCAT are within error of each other in switch fluorescence ratio: 1.02 ± 0.048 for the first, 1.07 ± 0.059 for the second.

GCTTAAGAGG and GACATGGTTA are within error of each other in switch fluorescence ratio: 1.03 ± 0.017 for the first, 1.02 ± 0.051 for the second.

Compared with TAGGTTTTTT, GGGGGCTAAG is higher in switch fluorescence ratio: 0.989 ± 0.035 for the first, 1.026 ± 0.0039 for the second.

TATAAGAGAG and GCGATTGGGT are within error of each other in switch fluorescence ratio: 1 ± 0.024 for the first, 1.01 ± 0.043 for the second.

TATGGAGGGC and GACATAAGCA are within error of each other in switch fluorescence ratio: 1.06 ± 0.041 for the first, 1.03 ± 0.017 for the second.

TCTATCTAGA and TGCGGGGCAG are within error of each other in switch fluorescence ratio: 0.988 ± 0.014 for the first, 1.04 ± 0.072 for the second.

TAGGGCGCAG and AAATCGGGTT are within error of each other in switch fluorescence ratio: 0.959 ± 0.028 for the first, 1.15 ± 0.28 for the second.

CAAAAAACGG and TGGTATTGTG are within error of each other in switch fluorescence ratio: 1.13 ± 0.23 for the first, 0.947 ± 0.021 for the second.

TCAATGATGG and ACATTGTGCG are within error of each other in switch fluorescence ratio: 1 ± 0.0046 for the first, 0.969 ± 0.048 for the second.

TTTGGGGGGT and GAGTCGGTGG are within error of each other in switch fluorescence ratio: 0.985 ± 0.02 for the first, 1.4 ± 0.63 for the second.

TTTTTGTATT and TATTTTTAGT are within error of each other in switch fluorescence ratio: 1.03 ± 0.02 for the first, 1 ± 0.027 for the second.

First: CAATTTACGG
Second: CGGTTGAGTT
The switch fluorescence ratio of the first is higher: 1.1 ± 0.036 for the first, 1.02 ± 0.04 for the second.

TTAGTAGCTA and CGCCGACGGC are the same in switch fluorescence ratio: 1.01 ± 0.013 for the first, 1.01 ± 0.018 for the second.

First: TAACTAAATT
Second: ATGGTTCCCT
The switch fluorescence ratio of the first is lower: 0.98675 ± 0.00031 for the first, 1.01 ± 0.02 for the second.

AACTTTTTAT and CGGGCTGAGA are within error of each other in switch fluorescence ratio: 1.04 ± 0.042 for the first, 1.045 ± 0.0048 for the second.

TGTAAATTTT and CATTTGGAAT are within error of each other in switch fluorescence ratio: 1.03 ± 0.041 for the first, 1.7 ± 0.97 for the second.

CGGTTAGATA and TTCGGAGGGT are within error of each other in switch fluorescence ratio: 0.987 ± 0.019 for the first, 0.9899 ± 0.0088 for the second.

GGTGAGGGAC and AAAATGCGCA are the same in switch fluorescence ratio: 1.02 ± 0.011 for the first, 1.02 ± 0.037 for the second.

AAAGAATTCA and AAGTCCAAGA are within error of each other in switch fluorescence ratio: 1.05 ± 0.051 for the first, 1.01 ± 0.033 for the second.

GGGCTATGGG and GGGGGTGCCT are within error of each other in switch fluorescence ratio: 0.997 ± 0.049 for the first, 0.986 ± 0.064 for the second.

ATATGCGATG and ACGAAGAAGT are within error of each other in switch fluorescence ratio: 0.97 ± 0.051 for the first, 1.012 ± 0.0048 for the second.

AAAGTCTTGT and TCTGGGCTTG are within error of each other in switch fluorescence ratio: 1.01 ± 0.035 for the first, 0.999 ± 0.015 for the second.

TTTGCCCTGG and TGGTAGAGAT are within error of each other in switch fluorescence ratio: 1.1 ± 0.08 for the first, 1.01 ± 0.051 for the second.

TCAGGTTAGG and TGGGATAGAT are within error of each other in switch fluorescence ratio: 1.008 ± 0.0065 for the first, 0.996 ± 0.027 for the second.

GGTATGTTTG and TTGTGGGAAG are within error of each other in switch fluorescence ratio: 0.96 ± 0.043 for the first, 0.976 ± 0.034 for the second.

TATCCAGTGG and GATACGGTTA are within error of each other in switch fluorescence ratio: 1.01 ± 0.054 for the first, 1.03 ± 0.011 for the second.

AATAGTGGTT and GGGAGGGCGG are within error of each other in switch fluorescence ratio: 1.004 ± 0.0033 for the first, 0.975 ± 0.051 for the second.

First: TATACGTGGC
Second: AGTAGAGATG
The switch fluorescence ratio of the first is lower: 0.939 ± 0.03 for the first, 1.03 ± 0.028 for the second.

ATTCGTTTTT and GTTATTATGT are within error of each other in switch fluorescence ratio: 1 ± 0.021 for the first, 0.994 ± 0.077 for the second.

CTTCGGGGCG and AGGATAGTGT are within error of each other in switch fluorescence ratio: 1.01 ± 0.07 for the first, 0.985 ± 0.036 for the second.
